The source of these data is paper PMC12286842 (Nature, 2025).

In the test the target is T1, ^15N-labelled ubiquitin (WT, untagged) (UniProt P0CG48 1-76, ^15N-labelled).
T1 construct: ubiquitin, the 76-residue mature protein; also called ^15N-ubiquitin; source: E. coli BL21 (DE3) in M9 medium with ^15N-ammonium chloride, purified (cation exchange, Superdex 75 SEC)
In words: NMR titration; ^1H-^15N HSQC of ^15N-ubiquitin titrated with unlabelled UBR4-UBL; 25 mM NaPi pH 7.0, 150 mM NaCl, 1 mM TCEP, 10% D2O; global fit of chemical shift perturbations to 1:1 binding. As to conditions: both partners purified.

B1: 6×His-tagged UBR4-UBL (residues 4340–4463) (domain or fragment, human, UniProt Q5T4S7-1 4340-4463, looked up)
chain: YPEENEVTEFFVTLEKDPQQEDFLQGRMPGNPYSSNEPGIGPLMRDIKNKICQDCDLVALLEDDSGMELLVNNKIISLDLPVAEVYKKVWCTTNEGEPMRIVYRMRGLLGDATEEFIESLDSTT
notes: UBR4 ubiquitin-like (UBL) domain, residues 4340–4463 of UniProt Q5T4S7-1; also called UBL domain; UBR4 UBL domain; source: E. coli BL21 (DE3), purified (Ni-NTA HisTrap FF, Superdex 75 SEC)
Usually Kd stands for the concentration at which binding is half-saturated. On to B1, for which the dissociation constant Kd turned out to be 124 µM.
